Source: publication PMC6510891, “Functional duplication of Rap1 in methylotrophic yeasts”

Target: T1, HpRap1B (Hansenula polymorpha DL-1, UniProt W1QDN2 1-576)
T1 sequence: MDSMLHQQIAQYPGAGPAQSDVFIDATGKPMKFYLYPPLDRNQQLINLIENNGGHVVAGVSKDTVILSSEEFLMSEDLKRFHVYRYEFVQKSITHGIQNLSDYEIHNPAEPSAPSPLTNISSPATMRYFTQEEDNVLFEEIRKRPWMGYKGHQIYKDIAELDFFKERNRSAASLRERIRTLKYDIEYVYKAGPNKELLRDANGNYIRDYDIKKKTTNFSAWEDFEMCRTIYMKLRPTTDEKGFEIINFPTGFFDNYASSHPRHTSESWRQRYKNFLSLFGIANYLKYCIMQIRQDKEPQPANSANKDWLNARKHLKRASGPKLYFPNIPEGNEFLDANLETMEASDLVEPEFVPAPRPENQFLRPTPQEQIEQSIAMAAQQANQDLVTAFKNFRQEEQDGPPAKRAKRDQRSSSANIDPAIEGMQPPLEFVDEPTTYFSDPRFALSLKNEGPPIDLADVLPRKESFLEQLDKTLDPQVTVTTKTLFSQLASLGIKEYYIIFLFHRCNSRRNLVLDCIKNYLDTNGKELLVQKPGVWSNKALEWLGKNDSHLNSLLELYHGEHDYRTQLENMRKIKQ
Assay: SPR; kinetic fit; equilibrium Kd 13±3; SPR: 10 mM HEPES-NaOH pH 7.5, 150 mM NaCl, 0.5 mM DTT, 0.05% Tween 20, 1 mg/ml BSA, 0.02 mg/ml salmon sperm DNA; competition 2 nM protein with 20 or 200 nM competitor. EMSA: 20 mM HEPES-NaOH pH 7.5, 50 mM NaCl, 0.2 mg/ml BSA, 5% glycerol, 0.1 mg/ml salmon sperm DNA, room temperature
Details: protein: recombinant; 3' overhang 20 nt on strand 2

B1: HANPO4 (SPR) (dsDNA)
DNA 1: GGGTGGCGGGGTGGCGGGGTGGCGGGGTGGCG
DNA 2: CGCCACCCCGCCACCCCGCCACCCCGCCACCCCCTCTACGTCCTCCTGCTCC
With B1 the Kd was 12 ± 3 nM.
